Laboratory results taken from IntAct's records for PubMed 29892012.

B1: Transcription factor RFX3 (Homo sapiens), P48380 (parent)
chain: MQTSETGSDTGSTVTLQTSVASQAAVPTQVVQQVPVQQQVQQVQTVQQVQHVYPAQVQYVEGSDTVYTNGAIRTTTYPYTETQMYSQNTGGNYFDTQGSSAQVTTVVSSHSMVGTGGIQMGVTGGQLISSSGGTYLIGNSMENSGHSVTHTTRASPATIEMAIETLQKSDGLSTHRSSLLNSHLQWLLDNYETAEGVSLPRSTLYNHYLRHCQEHKLDPVNAASFGKLIRSIFMGLRTRRLGTRGNSKYHYYGIRVKPDSPLNRLQEDMQYMAMRQQPMQQKQRYKPMQKVDGVADGFTGSGQQTGTSVEQTVIAQSQHHQQFLDASRALPEFGEVEISSLPDGTTFEDIKSLQSLYREHCEAILDVVVNLQFSLIEKLWQTFWRYSPSTPTDGTTITESSNLSEIESRLPKAKLITLCKHESILKWMCNCDHGMYQALVEILIPDVLRPIPSALTQAIRNFAKSLEGWLSNAMNNIPQRMIQTKVAAVSAFAQTLRRYTSLNHLAQAARAVLQNTSQINQMLSDLNRVDFANVQEQASWVCQCDDNMVQRLETDFKMTLQQQSTLEQWAAWLDNVMMQALKPYEGRPSFPKAARQFLLKWSFYSSMVIRDLTLRSAASFGSFHLIRLLYDEYMFYLVEHRVAQATGETPIAVMGEFGDLNAVSPGNLDKDEGSEVESEMDEELDDSSEPQAKREKTELSQAFPVGCMQPVLETGVQPSLLNPIHSEHIVTSTQTIRQCSATGNTYTAV
partner: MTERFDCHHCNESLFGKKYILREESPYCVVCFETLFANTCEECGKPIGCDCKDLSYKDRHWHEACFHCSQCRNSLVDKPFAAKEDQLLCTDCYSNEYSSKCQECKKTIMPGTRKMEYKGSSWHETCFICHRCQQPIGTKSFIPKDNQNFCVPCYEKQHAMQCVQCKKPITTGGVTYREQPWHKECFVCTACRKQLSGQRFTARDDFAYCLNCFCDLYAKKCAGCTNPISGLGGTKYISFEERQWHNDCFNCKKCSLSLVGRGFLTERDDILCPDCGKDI
B2: Transcription factor RFX3 (Homo sapiens), P48380 (parent)
chain: B1 chain
partner: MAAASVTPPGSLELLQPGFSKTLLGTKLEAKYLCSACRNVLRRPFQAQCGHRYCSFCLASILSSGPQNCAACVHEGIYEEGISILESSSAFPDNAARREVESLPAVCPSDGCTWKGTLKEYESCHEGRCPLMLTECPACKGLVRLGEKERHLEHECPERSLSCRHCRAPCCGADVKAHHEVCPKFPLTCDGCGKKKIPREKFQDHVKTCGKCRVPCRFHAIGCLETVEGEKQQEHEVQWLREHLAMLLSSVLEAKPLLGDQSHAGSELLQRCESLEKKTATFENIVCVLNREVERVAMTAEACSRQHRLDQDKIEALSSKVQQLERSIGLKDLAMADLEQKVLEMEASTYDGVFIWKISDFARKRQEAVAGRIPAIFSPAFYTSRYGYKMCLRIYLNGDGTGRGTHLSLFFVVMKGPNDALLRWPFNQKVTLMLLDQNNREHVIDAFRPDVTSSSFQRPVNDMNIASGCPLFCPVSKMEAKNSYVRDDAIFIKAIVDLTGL
B3: Atos homolog protein B (Homo sapiens), Q7L5A3 (parent)
chain: MRHVQAEPSPSSEPEAGPSQPPVRQGALQGGLLMGYSPAGGATSPGVYQVSIFSPPAGTSEPHRALKRQAPSTEGPRELKRGPGLGAREGLPPEEPSTVGLLGPEGPGLGLGVASQHFSHRGLCVVEQRSSVTSSWTSGAWSPPCPPSNASCNTLHTRDWASPDPGGQGSLGESPGPAPPGQLHTLDTDLHSLAQIGGKSPVAGVGNGGSLWPRESPGTANGHSPEHTPPGPGPPGPCPTKRRLLPAGEAPDVSSEEEGPAPRRRRGSLGHPTAANSSDAKATPFWSHLLPGPKEPVLDPTDCGPMGRRLKGARRLKLSPLRSLRKGPGLLSPPSASPVPTPAVSRTLLGNFEESLLRGRFAPSGHIEGFTAEIGASGSYCPQHVTLPVTVTFFDVSEQNAPAPFLGIVDLNPLGRKGYSVPKVGTVQVTLFNPNQTVVKMFLVTFDFSDMPAAHMTFLRHRLFLVPVGEEGNANPTHRLLCYLLHLRFRSSRSGRLSLHGDIRLLFSRRSLELDTGLPYELQAVTEAPHNPRYSPLP
partner: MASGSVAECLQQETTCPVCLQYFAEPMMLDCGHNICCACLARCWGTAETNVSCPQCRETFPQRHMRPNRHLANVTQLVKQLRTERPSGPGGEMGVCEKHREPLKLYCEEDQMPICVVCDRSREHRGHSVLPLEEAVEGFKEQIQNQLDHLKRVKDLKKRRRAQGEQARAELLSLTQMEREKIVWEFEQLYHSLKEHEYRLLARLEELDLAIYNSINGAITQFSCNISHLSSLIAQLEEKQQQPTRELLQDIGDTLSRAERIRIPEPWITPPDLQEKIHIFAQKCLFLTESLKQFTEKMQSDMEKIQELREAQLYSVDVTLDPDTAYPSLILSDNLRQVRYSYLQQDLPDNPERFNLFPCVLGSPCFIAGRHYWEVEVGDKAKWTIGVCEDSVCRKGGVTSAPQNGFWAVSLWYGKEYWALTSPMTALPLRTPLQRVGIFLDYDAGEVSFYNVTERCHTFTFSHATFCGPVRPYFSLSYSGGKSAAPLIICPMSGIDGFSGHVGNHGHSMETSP
B4: Atos homolog protein B (Homo sapiens), Q7L5A3 (parent)
chain: B3 chain
partner: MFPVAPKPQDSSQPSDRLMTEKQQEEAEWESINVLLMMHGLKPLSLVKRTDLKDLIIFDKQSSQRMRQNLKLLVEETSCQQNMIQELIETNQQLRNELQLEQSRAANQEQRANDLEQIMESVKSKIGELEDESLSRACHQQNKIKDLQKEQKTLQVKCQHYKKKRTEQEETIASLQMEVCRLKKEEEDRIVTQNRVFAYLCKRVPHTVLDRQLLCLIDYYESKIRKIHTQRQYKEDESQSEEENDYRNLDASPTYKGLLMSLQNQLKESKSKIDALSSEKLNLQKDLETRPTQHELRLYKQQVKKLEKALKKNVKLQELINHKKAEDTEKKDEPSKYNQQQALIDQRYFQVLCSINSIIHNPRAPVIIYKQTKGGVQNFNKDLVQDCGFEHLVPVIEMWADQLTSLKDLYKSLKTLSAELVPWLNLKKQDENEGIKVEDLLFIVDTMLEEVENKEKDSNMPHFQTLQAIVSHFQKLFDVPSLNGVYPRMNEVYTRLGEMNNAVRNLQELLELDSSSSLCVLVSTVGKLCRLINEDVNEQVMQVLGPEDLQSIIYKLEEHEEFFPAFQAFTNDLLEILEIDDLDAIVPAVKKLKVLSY
B5: Atos homolog protein B (Homo sapiens), Q7L5A3 (parent)
chain: B3 chain
B6: Atos homolog protein B (Homo sapiens), Q7L5A3 (parent)
chain: B3 chain
partner: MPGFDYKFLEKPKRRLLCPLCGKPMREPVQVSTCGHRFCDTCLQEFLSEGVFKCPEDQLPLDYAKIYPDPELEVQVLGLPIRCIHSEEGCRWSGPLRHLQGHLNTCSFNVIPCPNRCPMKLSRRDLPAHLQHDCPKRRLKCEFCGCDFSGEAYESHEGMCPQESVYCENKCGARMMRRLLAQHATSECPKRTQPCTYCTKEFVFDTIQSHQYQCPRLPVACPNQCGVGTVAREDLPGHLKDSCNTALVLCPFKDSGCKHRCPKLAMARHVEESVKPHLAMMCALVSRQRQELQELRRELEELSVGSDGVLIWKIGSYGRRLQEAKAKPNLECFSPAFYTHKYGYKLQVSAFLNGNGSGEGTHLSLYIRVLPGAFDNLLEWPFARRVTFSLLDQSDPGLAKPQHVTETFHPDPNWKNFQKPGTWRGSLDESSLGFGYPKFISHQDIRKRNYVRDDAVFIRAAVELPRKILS
B7: Glutaredoxin-3 (Homo sapiens), O76003 (parent)
chain: MAAGAAEAAVAAVEEVGSAGQFEELLRLKAKSLLVVHFWAPWAPQCAQMNEVMAELAKELPQVSFVKLEAEGVPEVSEKYEISSVPTFLFFKNSQKIDRLDGAHAPELTKKVQRHASSGSFLPSANEHLKEDLNLRLKKLTHAAPCMLFMKGTPQEPRCGFSKQMVEILHKHNIQFSSFDIFSDEEVRQGLKAYSSWPTYPQLYVSGELIGGLDIIKELEASEELDTICPKAPKLEERLKVLTNKASVMLFMKGNKQEAKCGFSKQILEILNSTGVEYETFDILEDEEVRQGLKAYSNWPTYPQLYVKGELVGGLDIVKELKENGELLPILRGEN
partner: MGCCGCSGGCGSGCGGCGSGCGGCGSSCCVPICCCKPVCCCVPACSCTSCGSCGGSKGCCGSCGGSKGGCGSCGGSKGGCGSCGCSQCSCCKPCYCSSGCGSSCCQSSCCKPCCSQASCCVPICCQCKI
B8: Glutaredoxin-3 (Homo sapiens), O76003 (parent)
chain: B7 chain

Variants of: B1
Conditions: with fhl2_human FHL2, Q14192

Row | Variant | effect of a mutation on the interaction
1 | S387C | with no effect

Variants of: B1
Conditions: with fhl2_human FHL2, Q14192
Remark: another data set of the same source

Row | Variant | effect of a mutation on the interaction
2 | Y135D | with no effect

Variants of: B2
Conditions: with traf2_human TRAF2, Q12933

Row | Variant | effect of a mutation on the interaction
3 | S387C | with no effect

Variants of: B3
Conditions: with tri27_human TRIM27, P14373

Row | Variant | effect of a mutation on the interaction
4 | C381Y | disrupting interaction strength

Variants of: B4
Conditions: with cep70_human CEP70, Q8NHQ1

Row | Variant | effect of a mutation on the interaction
5 | C381Y | disrupting interaction strength

Variants of: B5
Conditions: with mdfi_human MDFI

Row | Variant | effect of a mutation on the interaction
6 | C381Y | with no effect

Variants of: B5
Conditions: with ikzf1_human IKZF1, Q13422
ikzf1_human IKZF1, Q13422, sequence (Q13422 whole entry): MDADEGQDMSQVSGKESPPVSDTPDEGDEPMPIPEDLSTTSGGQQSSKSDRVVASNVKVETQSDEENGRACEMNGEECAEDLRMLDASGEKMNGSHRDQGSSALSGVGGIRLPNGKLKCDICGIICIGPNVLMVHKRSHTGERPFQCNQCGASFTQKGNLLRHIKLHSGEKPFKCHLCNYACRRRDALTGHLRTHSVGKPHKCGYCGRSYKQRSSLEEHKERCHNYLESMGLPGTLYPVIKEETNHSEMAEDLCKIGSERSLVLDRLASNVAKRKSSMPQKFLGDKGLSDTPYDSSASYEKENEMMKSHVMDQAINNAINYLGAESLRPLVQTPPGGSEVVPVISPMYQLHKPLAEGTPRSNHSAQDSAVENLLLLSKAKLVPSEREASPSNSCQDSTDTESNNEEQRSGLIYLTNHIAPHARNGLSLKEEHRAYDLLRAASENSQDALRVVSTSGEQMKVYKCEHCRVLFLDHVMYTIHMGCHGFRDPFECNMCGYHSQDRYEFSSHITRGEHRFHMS

Row | Variant | effect of a mutation on the interaction
7 | C381Y | disrupting interaction strength

Variants of: B5
Conditions: with dnja3_human DNAJA3, Q96EY1
dnja3_human DNAJA3, Q96EY1, sequence (Q96EY1 whole entry): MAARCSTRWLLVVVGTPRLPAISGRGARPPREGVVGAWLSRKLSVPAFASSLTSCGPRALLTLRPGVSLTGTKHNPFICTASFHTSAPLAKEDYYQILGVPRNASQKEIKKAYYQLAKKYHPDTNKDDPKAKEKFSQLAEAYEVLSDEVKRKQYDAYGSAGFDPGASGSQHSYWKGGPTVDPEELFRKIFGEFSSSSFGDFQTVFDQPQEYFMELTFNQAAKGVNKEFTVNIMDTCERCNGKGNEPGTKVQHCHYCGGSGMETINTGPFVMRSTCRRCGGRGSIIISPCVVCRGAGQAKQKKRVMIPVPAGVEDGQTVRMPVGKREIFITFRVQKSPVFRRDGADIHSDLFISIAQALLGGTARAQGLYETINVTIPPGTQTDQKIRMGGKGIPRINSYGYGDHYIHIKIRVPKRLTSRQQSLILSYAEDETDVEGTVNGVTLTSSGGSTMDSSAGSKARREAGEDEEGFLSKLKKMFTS

Row | Variant | effect of a mutation on the interaction
8 | C381Y | disrupting interaction strength

Variants of: B6
Conditions: with traf4_human TRAF4, Q9BUZ4

Row | Variant | effect of a mutation on the interaction
9 | C381Y | disrupting interaction strength

Variants of: B7
Conditions: with kra56_human KRTAP5-6, Q6L8G9

Row | Variant | effect of a mutation on the interaction
10 | P145A | with no effect

Variants of: B8
Conditions: with grn_human GRN

Row | Variant | effect of a mutation on the interaction
11 | P145A | with no effect

Variants of: B8
Conditions: with cpin1_human CIAPIN1, Q6FI81
cpin1_human CIAPIN1, Q6FI81, sequence (Q6FI81 whole entry): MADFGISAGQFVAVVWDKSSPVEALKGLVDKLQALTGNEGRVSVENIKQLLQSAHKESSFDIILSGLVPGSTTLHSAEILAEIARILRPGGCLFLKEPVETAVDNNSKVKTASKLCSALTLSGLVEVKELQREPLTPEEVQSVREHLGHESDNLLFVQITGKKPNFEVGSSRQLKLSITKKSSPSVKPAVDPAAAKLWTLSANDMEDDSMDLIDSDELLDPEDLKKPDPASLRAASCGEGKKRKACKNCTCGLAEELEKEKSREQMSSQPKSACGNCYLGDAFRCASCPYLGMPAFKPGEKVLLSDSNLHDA

Row | Variant | effect of a mutation on the interaction
12 | P145A | with no effect

Variants of: B8
Conditions: with tmm25_human TMEM25, Q86YD3
tmm25_human TMEM25, Q86YD3, sequence (Q86YD3 whole entry): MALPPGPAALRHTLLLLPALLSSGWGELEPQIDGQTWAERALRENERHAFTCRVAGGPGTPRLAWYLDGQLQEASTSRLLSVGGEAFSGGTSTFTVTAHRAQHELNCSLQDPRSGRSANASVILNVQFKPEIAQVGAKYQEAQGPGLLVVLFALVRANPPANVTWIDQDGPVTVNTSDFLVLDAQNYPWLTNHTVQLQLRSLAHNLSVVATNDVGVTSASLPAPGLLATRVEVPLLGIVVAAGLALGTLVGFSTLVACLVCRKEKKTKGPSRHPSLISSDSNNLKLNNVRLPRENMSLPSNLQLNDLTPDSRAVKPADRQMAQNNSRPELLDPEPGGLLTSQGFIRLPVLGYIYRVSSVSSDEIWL

Row | Variant | effect of a mutation on the interaction
13 | P145A | with no effect
